US20240301064A1

Target: PD-1 on PD-1 reporter Jurkat cells
Test: cell-based or functional assay

CC-90006 (antibody)
SHP-2 recruitment, Ig-tethered test article, PD-1 reporter Jurkat cells; EC50: 2.94 nM
SHP-2 recruitment, Ig-tethered test article, PD-1 reporter Jurkat cells; EC50 (second experiment): 2.59 nM
